Results on 1 molecule are retold here after patent publication US11230591 (Merck Sharp & Dohme, dated 2022).

One test addresses T1, CMV virions.
T1 construct: also called whole virions
As to the kind of experiment: virion ELISA. On the technique in general: An ELISA detects its analyte on a solid surface through an enzyme-linked reagent.

The target of test [1] is gB on infectious CMV (neutralization assays) (human cytomegalovirus). As to the kind of experiment: cell-based or functional assay.

B1: 3-25 (antibody, V domains shown)
VH: QVQLVESGGGVVQPGRSLRLSCAASGFTFSNHGLHWVRQPPGKGLEWVAVVSKDGTNEHYADSVRGRFTISRDNSKNTLYLLMKSLRLEDTAVYYCAREGYCGDDRCYSGQPDYWGQGILVTVSS
VL: EIVLTQFPATLSLSPGERATLSCRASQSVGRYLAWYQQKPGQAPRLLIYDSSNRATGVPARFSGSGSGTDFTLSISSLEPEDFAVYFCQQRSHWPPLTFGGGTKVEIK
notes: also called antibody 3-25; clone 3-25
A word on the EC50: it is the concentration that produces a half-maximal response. A lower EC50 goes with an effect from little substance. In turn, B1 registered a concentration giving a half-maximal response (EC50) in the test with CMV virions of 0.04 µg/mL. Further, in test [1], the “EC50 Neutralizing” value came to 0.3 µg/mL.
